# Values quoted from earlier work as cited in article PMC2846645.
# Like-named read-outs stand apart in the source and are kept apart here.
# Experiments:
# Assay in all cases: surface plasmon resonance
# [1] = target: GABAA receptor beta3 subunit 400-412 (UniProt P28472)
# [2] = target: GABAA receptor gamma2 subunit Y365/Y367 motif (UniProt P18507)
# [3] = target: GABAA receptor beta3 subunit 400-412 (UniProt P28472); remark: listed apart in the source
substance,measurement,setting,value
AP2 mu2 (from UniProt Q96CW1),Kd,[1],300 nM
same,Kd,[2],40 nM
same,Kd,[3],1900 nM
